Experimental data: PMC4694770, “Gene Regulatory Mechanisms Underlying the Spatial and Temporal Regulation of Target-Dependent Gene Expression in Drosophila Neurons”

What was measured:
GST-MH1-Mad (GST-MadN) [1] = biological target: T1, GST-MH1-Mad (GST-MadN) (Drosophila melanogaster, UniProt P42003 26-150); experiment: EMSA; 1 ug poly(dI-dC), 5 mM MgCl2; out-competed by unlabeled WT; Ap: 20 mM HEPES pH 7.8, 50 mM KCl, 10% glycerol, 0.25 mM EDTA, 0.1 mg/ml BSA, 1 mM DTT, 21 C; Mad: 25 mM Tris pH 7.5, 35 mM KCl, 80 mM NaCl, 5 mM MgCl2, 3.5 mM; conditions: protein: recombinant; tags: GST (pGEX6p1); label: IRDye 700
T1 sequence (P42003 26-150): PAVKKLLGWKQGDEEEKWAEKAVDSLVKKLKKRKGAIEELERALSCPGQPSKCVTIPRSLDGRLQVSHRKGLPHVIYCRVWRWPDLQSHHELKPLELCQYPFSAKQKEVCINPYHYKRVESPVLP

GST-MH1-Mad (GST-MadN) [2] = biological target: T1, GST-MH1-Mad (GST-MadN); experiment: competition; vs labeled BMP-RE; Ap: 20 mM HEPES pH 7.8, 50 mM KCl, 10% glycerol, 0.25 mM EDTA, 0.1 mg/ml BSA, 1 mM DTT, 21 C; Mad: 25 mM Tris pH 7.5, 35 mM KCl, 80 mM NaCl, 5 mM MgCl2, 3.5 mM; conditions: protein: recombinant; tags: GST (pGEX6p1); label: unlabeled
His::Svp = biological target: T2, His::Svp (Drosophila melanogaster, UniProt P16375 1-543); experiment: EMSA; with or without poly(dI-dC); out-competed by WT at 20:1; Ap: 20 mM HEPES pH 7.8, 50 mM KCl, 10% glycerol, 0.25 mM EDTA, 0.1 mg/ml BSA, 1 mM DTT, 21 C; Mad: 25 mM Tris pH 7.5, 35 mM KCl, 80 mM NaCl, 5 mM MgCl2, 3.5 mM; conditions: protein: recombinant; tags: N-term His; GST removed with PreScission protease; chain copies: 2; label: IRDye 700
T2 sequence: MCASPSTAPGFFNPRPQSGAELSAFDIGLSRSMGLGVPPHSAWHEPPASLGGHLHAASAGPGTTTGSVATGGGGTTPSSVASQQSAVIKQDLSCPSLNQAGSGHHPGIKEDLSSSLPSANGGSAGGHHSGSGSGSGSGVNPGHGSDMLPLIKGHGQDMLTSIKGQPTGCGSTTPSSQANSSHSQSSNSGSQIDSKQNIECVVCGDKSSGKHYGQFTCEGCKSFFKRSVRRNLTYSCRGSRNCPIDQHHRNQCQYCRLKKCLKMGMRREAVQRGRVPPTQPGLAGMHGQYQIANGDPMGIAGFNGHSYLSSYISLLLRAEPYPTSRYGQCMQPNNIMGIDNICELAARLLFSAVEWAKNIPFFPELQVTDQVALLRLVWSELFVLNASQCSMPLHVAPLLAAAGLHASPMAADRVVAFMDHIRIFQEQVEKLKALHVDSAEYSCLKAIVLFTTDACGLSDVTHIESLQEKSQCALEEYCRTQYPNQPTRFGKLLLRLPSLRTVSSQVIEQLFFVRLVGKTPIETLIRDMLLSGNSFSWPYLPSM

B1: BMP-RE probe (dsDNA)
DNA 1: GCCAGAGGCGCCACAATGTATCCCGTT
DNA 2: AACGGGATACATTGTGGCGCCTCTGGC
binding result (GST-MH1-Mad (GST-MadN) [1]): binds

B2: MutMad BMP-RE competitor (dsDNA)
DNA 1: GCCAGATAGTAGACAATGTATCCCGTT
DNA 2: AACGGGATACATTGTCTACTATCTGGC
binding result (GST-MH1-Mad (GST-MadN) [2]): no binding

B3: DR1 Svp probe (dsDNA)
DNA 1: AGCTCTCAGGTCAGAGGTCAGAGAGCT
DNA 2: AGCTCTCTGACCTCTGACCTGAGAGCT
binding result (His::Svp): binds
